Laboratory results taken from paper doi:10.1101/2024.10.11.617910 (bioRxiv, 2024).

Biological target: beta-amyloid 42 peptide (UniProt P05067)
Assay: SiMoA

binding result: no binding
B1: Donanemab (antibody, V domains shown)
VH: QVQLVQSGAEVKKPGSSVKVSCKASGYDFTRYYINWVRQAPGQGLEWMGWINPGSGNTKYNEKFKGRVTITADESTSTAYMELSSLRSEDTAVYYCAREGITVYWGQGTTVTVSS
VL: DIVMTQTPLSLSVTPGQPASISCKSSQSLLYSRGKTYLNWLLQKPGQSPQLLIYAVSKLDSGVPDRFSGSGSGTDFTLKISRVEAEDVGVYYCVQGTHYPFTFGQGTKLEIK
